Experimental data: article PMC6721724, “The Intrinsically Disordered C-Terminal Domain Triggers Nucleolar Localization and Function Switch of PARN in Response to DNA Damage” (Cells, 2019)

Biological target: the molecule itself
Assay: cross-linking; purified protein cross-linked with 0.03% glutaraldehyde, analysed by SDS-PAGE

B1: full-length PARN, recombinant (enzyme, human, UniProt O95453 1-639, looked up)
chain: MEIIRSNFKSNLHKVYQAIEEADFFAIDGEFSGISDGPSVSALTNGFDTPEERYQKLKKHSMDFLLFQFGLCTFKYDYTDSKYITKSFNFYVFPKPFNRSSPDVKFVCQSSSIDFLASQGFDFNKVFRNGIPYLNQEEERQLREQYDEKRSQANGAGALSYVSPNTSKCPVTIPEDQKKFIDQVVEKIEDLLQSEENKNLDLEPCTGFQRKLIYQTLSWKYPKGIHVETLETEKKERYIVISKVDEEERKRREQQKHAKEQEELNDAVGFSRVIHAIANSGKLVIGHNMLLDVMHTVHQFYCPLPADLSEFKEMTTCVFPRLLDTKLMASTQPFKDIINNTSLAELEKRLKETPFNPPKVESAEGFPSYDTASEQLHEAGYDAYITGLCFISMANYLGSFLSPPKIHVSARSKLIEPFFNKLFLMRVMDIPYLNLEGPDLQPKRDHVLHVTFPKEWKTSDLYQLFSAFGNIQISWIDDTSAFVSLSQPEQVKIAVNTSKYAESYRIQTYAEYMGRKQEEKQIKRKWTEDSWKEADSKRLNPQCIPYTLQNHYYRNNSFTAPSTVGKRNLSPSQEEAGLEDGVSGEISDTELEQTDSCAEPLSEGRKKAKKLKRMKKELSPAGSISKNSPATLFEVPDTW
notes: poly(A)-specific ribonuclease (PARN), human, full length; cloned in pET-28a
binding result: binds
